Biological target: ectoLRP4-AP (alkaline phosphatase-conjugated ectodomain of mouse LRP4) (mouse) (UniProt Q8VI56)
Experiment: ELISA; plate-binding assay, competition: 500 nM purified recombinant neural agrin added to 25 nM ectoLRP4-AP on ColQ-coated wells; agrin as the competitor that binds LRP4

ectoLRP4-AP (alkaline phosphatase-conjugated ectodomain of mouse LRP4) (mouse), sequence (Q8VI56 21-1725): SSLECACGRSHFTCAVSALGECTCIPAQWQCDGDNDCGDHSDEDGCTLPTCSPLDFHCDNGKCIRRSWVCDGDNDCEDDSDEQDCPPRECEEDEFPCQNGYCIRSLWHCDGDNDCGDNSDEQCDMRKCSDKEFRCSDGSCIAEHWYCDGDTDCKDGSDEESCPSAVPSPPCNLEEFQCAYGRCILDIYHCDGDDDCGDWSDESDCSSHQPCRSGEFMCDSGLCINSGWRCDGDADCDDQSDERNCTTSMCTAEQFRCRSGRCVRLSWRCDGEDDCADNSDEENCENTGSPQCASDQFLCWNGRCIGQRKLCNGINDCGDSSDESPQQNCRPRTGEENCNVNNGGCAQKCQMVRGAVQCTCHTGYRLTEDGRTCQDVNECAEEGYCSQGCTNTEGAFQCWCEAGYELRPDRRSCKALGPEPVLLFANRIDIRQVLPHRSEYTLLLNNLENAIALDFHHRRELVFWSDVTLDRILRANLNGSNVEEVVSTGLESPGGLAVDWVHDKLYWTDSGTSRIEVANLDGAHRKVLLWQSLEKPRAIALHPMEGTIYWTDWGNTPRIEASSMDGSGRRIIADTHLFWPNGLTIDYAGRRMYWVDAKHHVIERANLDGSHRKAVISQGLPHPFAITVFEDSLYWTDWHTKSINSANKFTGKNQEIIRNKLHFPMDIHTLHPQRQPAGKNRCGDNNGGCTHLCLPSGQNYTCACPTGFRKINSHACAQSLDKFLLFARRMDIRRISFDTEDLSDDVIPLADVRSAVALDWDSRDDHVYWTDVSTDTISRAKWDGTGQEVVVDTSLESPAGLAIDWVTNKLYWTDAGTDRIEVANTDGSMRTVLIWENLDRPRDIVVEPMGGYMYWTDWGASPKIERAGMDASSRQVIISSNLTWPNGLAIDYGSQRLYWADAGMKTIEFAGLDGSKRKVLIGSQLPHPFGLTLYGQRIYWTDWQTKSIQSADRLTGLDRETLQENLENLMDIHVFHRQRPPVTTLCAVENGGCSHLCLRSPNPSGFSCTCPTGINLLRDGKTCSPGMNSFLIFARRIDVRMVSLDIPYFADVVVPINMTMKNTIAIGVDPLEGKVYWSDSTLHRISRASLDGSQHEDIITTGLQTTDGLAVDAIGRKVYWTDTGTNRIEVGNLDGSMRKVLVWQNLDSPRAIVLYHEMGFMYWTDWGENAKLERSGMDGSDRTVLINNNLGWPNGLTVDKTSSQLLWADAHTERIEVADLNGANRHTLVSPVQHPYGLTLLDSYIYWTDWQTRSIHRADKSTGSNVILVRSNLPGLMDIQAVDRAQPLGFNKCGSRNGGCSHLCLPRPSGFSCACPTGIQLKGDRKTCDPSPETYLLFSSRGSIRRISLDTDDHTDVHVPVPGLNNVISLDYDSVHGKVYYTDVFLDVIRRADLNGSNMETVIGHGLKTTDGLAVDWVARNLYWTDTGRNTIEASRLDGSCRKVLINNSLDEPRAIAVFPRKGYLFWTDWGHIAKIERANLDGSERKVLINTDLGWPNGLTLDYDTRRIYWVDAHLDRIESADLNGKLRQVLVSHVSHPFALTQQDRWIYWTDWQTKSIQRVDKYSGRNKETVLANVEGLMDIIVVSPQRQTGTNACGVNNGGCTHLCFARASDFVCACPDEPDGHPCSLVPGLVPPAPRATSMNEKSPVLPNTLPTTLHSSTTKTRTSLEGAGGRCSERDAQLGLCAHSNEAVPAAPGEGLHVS

percent reduction of ectoLRP4-AP (25 nM) binding to ColQ by 500 nM agrin: > 50%
Substance: recombinant rat neural agrin (Sf21-derived C-terminal agrin, His-tagged, R&D Systems) (from UniProt P25304 1-1959) (ligand)
